What was measured:
[1] = biological target: T1, Orai1 (Homo sapiens, UniProt Q96D31); assay: Whole-cell patch clamp recording of ICRAC in transfected HEK 293 cells; format: cell-based; design: expressed in transfected cells; host or cells: HEK 293
Experimental: Electrophysiology. HEK 293 cells were transfected 8-24 h prior to electrophysiology experiments with STIM1- and Orai1-derived constructs in a 1:1 mass ratio using Lipofectamine 2000. […] ICRAC in cells cultured without LaCl3 was similar to that in cells cultured with LaCl3, but most cells without LaCl3 died soon after break-in.
Currents were recorded using standard whole-cell patch clamp techniques (Prakriya and Lewis, 2001). Pipettes of resistance 2-5 MΩ were filled with an internal solution containing (in mM) 150 Cs aspartate, 8 MgCl2, 10 EGTA, and 10 HEPES (pH 7.2 with CsOH). Currents were sampled at 5 kHz and filtered at 2 kHz, and all voltages were corrected for the junction potential of the pipette solution relative to Ringer's in the bath (−13 mV).
Patch-clamp Experiments. Pipette-membrane seals were formed in 2 mM Ca^2+ Ringer's solution. After break-in to the whole-cell configuration, voltage stimuli consisting of a 100-ms step to −100 mV followed by a 100-ms ramp from −100 to +100 mV were delivered every 5 s from the holding potential of +30 mV. After the currents reached a steady level (˜300 s for wild-type STIM1), the external solution was changed via a multibarrel local perfusion pipette to a high-Ca^2+ Ringer's containing (in mM) 130 NaCl, 4.5 KCl, 20 CaCl2, 1 MgCl2, 10 D-glucose, and 5 HEPES (pH 7.4 with NaOH). All data were leak-corrected using the current elicited in 20 mM Ca^2+ Ringer's+10 μM LaCl3 at the end of the each experiment. LaCl3 and 2-APB were added directly to parent solutions on the day of the experiment from 10 mM and 100 mM stocks in H2O and DMSO, respectively.
As a definitive test for CRAC channel activation, we conducted whole-cell patch clamp recordings from HEK 293 cells transiently transfected with myc-Orai1 and either YFP-STIM1 or YFP-CAD. In cells expressing full length YFP-STIM1, ICRAC appeared over several minutes following break-in, consistent with the typical slow activation seen in response to passive store depletion (FIG. 2D). […] In contrast, inward current was present from the moment of break-in in cells expressing YFP-CAD (FIG. 2E). This current was identified as ICRAC based on its dependence on extracellular Ca^2+, inward rectification, sequential enhancement and inhibition by 2-APB, and inhibition by La^3+ (FIG. 2E and FIG. 10 C, D). ICRAC was not observed at break-in in HEK 293 cells transfected with YFP or YFP-CAD in the absence of Orai1 (FIG. 2F), consistent with the low level of endogenous STIM1 and Orai1 in these cells. […] Inactivation was restored by addition of STIM1 residues carboxy-terminal to CAD.

[2] = biological target: T2, CAD (Homo sapiens, UniProt Q13586); assay: Yeast split ubiquitin assay, Orai1 fragments with CAD; format: binding; settings: NubG-Orai1 fragment with CAD-Cub-LV in yeast
T2 construct: For STIM1 342-448 (CAD); expressed in transfected cells; host or cells: HEK 293T
T2 sequence (Q13586 342-448): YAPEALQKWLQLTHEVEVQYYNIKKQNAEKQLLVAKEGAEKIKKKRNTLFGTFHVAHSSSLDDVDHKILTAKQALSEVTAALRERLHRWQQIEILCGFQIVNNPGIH
Experimental: Split-Ubiquitin Yeast Two Hybrid Assay. Screening was performed according to the manufacturer's instructions (Dualsystems Biotech). Transformed yeast were selected on media lacking Trp and Leu (-TL). Interaction was observed by cell growth on plates lacking Trp, Leu, and His (TLH) in the presence of 3-aminotriazole (3-AT). Protein interactions were also assessed by measuring lacZ activity using the chromogenic substrate X-gal (5-bromo-4-chloro-3-indolyl-β-galactopyranoside).
Split-Ubiquitin Yeast Two Hybrid Assay. To generate fusion proteins with the N-terminal half of ubiquitin (Nub), full-length or fragments of Orai1 were amplified by PCR and cloned into the pDL2-Nubx vector (Dualsystems Biotech). The Nub sequence in the pDL2-Nubx plasmid contains a point mutation (NubG) that abolishes the spontaneous association of Nub to the C-terminal half of ubiquitin (Cub). The CAD was subcloned into the pAMBV4 vector, which contains Cub fused to a chimeric transcription factor consisting of the DNA binding domain from LexA and the VP16 transactivation domain.
(§1) STIM1-CAD BINDS TO THE N- AND C-TERMINI OF ORAI1. To identify regions of Orai1 important for activation by CAD, we characterized the binding of CAD to Orai1 using two approaches. First we expressed fusions of NubG with the N-terminus, the II-III cytoplasmic loop and the C-terminus of Orai1 in yeast together with different CAD-Cub-LV constructs. […] Based on the level of b-gal activity, CAD appears to interact with the Orai1 C-terminus with a higher affinity than with the N-terminus. We next expressed fusions of YFP with the N-terminus, the II-III loop and the C-terminus of Orai1 in HEK 293T cells together with Flag-myc-CAD.
(§2) To explore the interaction between the N-terminus of Orai1 and CAD in more detail we mapped the subregion within the N-terminus of Orai1 that is responsible for CAD binding, using both the split ubiquitin and HEK 293T co-immunoprecipitation assays.

[3] = biological target: T2, CAD; assay: Co-immunoprecipitation of Orai1 fragments with CAD in HEK 293T cells; format: binding; settings: YFP-tagged Orai1 fragment with Flag-myc-CAD in HEK 293T cells
Experimental: (§3) Immunoprecipitation and Immunoblot Analysis. Transfected HEK 293T cells (12-24 h) were washed with PBS and lysed in 50 mM Tris-HCl pH 7.5, 150 mM NaCl, 1% Triton X-100, and protease inhibitors. Lysates were spun at 12,000 rpm for 10 min, and the supernatant was incubated with anti-Flag M2 agarose beads (Sigma), or anti-myc or -HA antibody followed by IgG agarose beads (Pierce). Lysates and immunoprecipitates were subjected to SDS-PAGE, probed with HRP-conjugated secondary antibody and detected by enhanced chemiluminescence (Pierce).
as §1, §2

[4] = biological target: T3, CRAC channels (Homo sapiens, UniProt Q96D31); assay: [Ca2+]i imaging in HEK 293 cells expressing STIM1 fragment and Orai1; format: cell-based; settings: for effect on CAD-induced sustained elevation of [Ca2+]i: HEK 293 cells expressing Orai1 and CAD
T3 construct: expressed in transfected cells; host or cells: HEK 293
T3 sequence (Q96D31 whole entry, the tested form may be a part): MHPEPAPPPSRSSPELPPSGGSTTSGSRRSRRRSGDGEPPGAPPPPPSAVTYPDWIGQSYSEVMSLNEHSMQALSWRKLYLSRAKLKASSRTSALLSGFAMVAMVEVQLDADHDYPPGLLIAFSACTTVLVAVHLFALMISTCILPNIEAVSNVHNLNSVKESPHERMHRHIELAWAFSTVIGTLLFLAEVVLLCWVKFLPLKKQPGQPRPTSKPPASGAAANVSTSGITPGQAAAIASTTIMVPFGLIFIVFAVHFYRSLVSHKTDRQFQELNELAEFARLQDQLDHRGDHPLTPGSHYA
Experimental: Ca^2+ Imaging. For FIG. 2, cells were loaded at 37° C. in DMEM with 1 μM fura-2/AM for 30 min. Ratiometric Ca2+ imaging was performed at 340 and 380 nm in 2 mM Ca2+ Ringer's solution with a Nikon Eclipse 2000-U inverted microscope equipped with a fluorescent arc lamp, excitation filter wheel, and a Hamamatsu Orca CCD camera. Images were collected using Openlab (Improvision) and analyzed using Igor Pro.
To determine if CAD activates store operated Ca^2+ influx in cells, we measured [Ca^2+]i in HEK 293 cells expressing CAD and Orai1.

[5] = biological target: T1, Orai1; assay: Co-immunoprecipitation with Orai1 in HEK 293T cells; format: binding; design: expressed in transfected cells; host or cells: HEK 293; settings: 150 mM salt, 1% Triton X-100
Experimental: as §3
CAD Associates with Orai1 in vivo and in vitro. Because cytosolic CAD is a potent activator of Orai1 channels and is not associated with the ER, we hypothesized that CAD binds to Orai1. To test this idea, we first expressed YFP-CAD with or without myc-Orai1 in HEK 293 cells and examined its intracellular localization. […] To provide additional evidence that CAD and Orai1 are part of the same protein complex we expressed Flag-tagged CAD and GFP-tagged Orai1 in HEK 293T cells and immunoprecipitated CAD with anti-Flag antibodies. GFP-myc-Orai1 was detected in the immunoprecipitates from cells co-expressing CAD and Orai1 but not from cells expressing CAD or Orai1 alone (FIG. 3B).
Thus, CAD and Orai1 form a protein complex in mammalian cells.

T1 sequence (Q96D31 whole entry): as the sequence (Q96D31 whole entry, the tested form may be a part) above

Molecule	interaction with CAD (b-gal, growth without histidine) [2]	co-immunoprecipitation with CAD [3]	other results
YFP-CT-STIM1: YFP-tagged CT-STIM1 (236-685) [reference compound]			constitutive ICRAC ([1]; HEK 293 cells cotransfected with construct and myc-Orai1, from break-in): failed to activate constitutive ICRAC
II-III loop of Orai1: Orai1 II-III cytoplasmic loop aa 142-177, SEQ ID NO:5	lack of interaction	not	
Orai148-70: Orai1 fragment aa 48-70 (SAVTYPDWIGQSYSEVMSLNEHS; UniProt Q96D31 48-70, looked up, fragment)	not		
CAD (342-440): CAD peptide with the last 8 aa deleted			[Ca2+]i / CRAC channel activation ([4]; HEK 293 cells coexpressing construct and Orai1, no store depletion): eliminates its ability to activate CRAC channels; co-immunoprecipitation with Orai1 [5]: retained the ability to bind to Orai1
Orai168-91: Orai1 fragment aa 68-91	interacted strongly		
NCCOB(c1ccccc1)c1ccccc1 [2-APB, 2-Aminoethoxydiphenylborate, reference compound]			effect on CAD-induced sustained elevation of [Ca2+]i ([4]; 100 μM 2-APB): blocked; effect on constitutive CAD-dependent ICRAC ([1]; YFP-CAD+myc-Orai1 HEK 293 cell, 50 μM 2-APB, 20 mM Ca2+): increase in CAD-dependent current followed by a slower inhibition
[Cl][La]([Cl])[Cl] [La^3+, LaCl3, reference compound]			effect on CAD-induced sustained elevation of [Ca2+]i ([4]; 10 μM La3+): blocked; effect on CAD-supported current ([1]; YFP-CAD+myc-Orai1 cell, 10 μM LaCl3, 20 mM Ca2+o): rapid inhibition of current
Orai148-91: Orai1 N-terminal fragment aa 48-91, SEQ ID NO:3	interacted strongly	co-immunoprecipitated	co-immunoprecipitation with CAD ([3]; listed as Orai1-NT(48-91)): co-immunoprecipitates
C-terminus of Orai1: Orai1 C-terminal fragment, SEQ ID NO:6 (HFYRSLVSHKTDRQFQELNELAEFARLQDQLDHRGDHPLTPGSHYA; H. sapiens)	strong interaction	interacts	
N-terminus of Orai1 (aa 1-91): Orai1 N-terminal fragment aa 1-91, SEQ ID NO:2	weaker interaction	only very weakly	co-immunoprecipitation with CAD ([3]; listed as N-terminus): interacts

— US20120165265A1, “Calcium Signaling Modulators Involving STIM and ORAI Proteins” (priority 2009, published 2012)
